Source: PMC4333373

What was measured:
[1] = target: T1, ParB (Spo0J) (Bacillus subtilis 168) (UniProt P26497); test: EMSA; settings: 50 mM Hepes-KOH pH 7.5, 100 mM KCl, 2.5 mM MgCl2, 0.1 mg/ml BSA, 1 mM DTT, 20 nM DNA, EMSA also 2.5% Ficoll, room temperature 30 min then ice 5 min, gel at 4 C
T1 sequence: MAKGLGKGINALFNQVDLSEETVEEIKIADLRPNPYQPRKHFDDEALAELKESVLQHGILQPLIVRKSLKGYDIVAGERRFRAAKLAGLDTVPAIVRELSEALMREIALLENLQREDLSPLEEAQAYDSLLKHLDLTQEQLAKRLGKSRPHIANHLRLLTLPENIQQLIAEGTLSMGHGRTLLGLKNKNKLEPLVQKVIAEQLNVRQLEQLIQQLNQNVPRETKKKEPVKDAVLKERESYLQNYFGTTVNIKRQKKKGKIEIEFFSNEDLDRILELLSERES

[2] = target: T1, ParB (Spo0J) (Bacillus subtilis 168); test: fluorescence intensity (Cy3); settings: 50 mM Hepes-KOH pH 7.5, 100 mM KCl, 2.5 mM MgCl2, 0.1 mg/ml BSA, 1 mM DTT, 20 nM DNA, EMSA also 2.5% Ficoll, room temperature 30 min then ice 5 min, gel at 4 C

## 147-bp parS
[1]; specific complex, TBM gel, 2.5 mM Mg2+
  Kd: 0.1 µM

## Cy3 147-bp non-specific (scrambled parS)
[2]; apparent Kd of ParB2, Hill h = 3.4 ± 0.4, 2.5 mM Mg2+
  Kd: 0.275 µM

## Cy3 147-bp parS
[2]
  Kd: 0.24 µM

## GGTACAAAAAGTGATTGCGGAGCAGCTCAATGTTCGCCAACTTGAGCAGCTGATTCAGCAGTTGAATCAGAATGTTCCACGTGAAACAAAGAAAAAAGAACCTGTGAAAGATGCGGTTCTAAAAGAACGGGAATCCTATCTCCAAAA (double strand) [147-bp parS]
[1]
  Kd: 0.1 µM
  binding: binds

## TTTTGGAGATAGGATTCCCGTTCTTTTAGAACCGCATCTTTCACAGGTTCTTTTTTCTTTGTCTCCCTGGGCACGTTCTGATTCAACTGCTGAATCAGCTGCTCAAGTTGGCGAACATTGAGCTGCTCCGCAATCACTTTTTGTACC (double strand) [147-bp non-specific (scrambled parS)]
[1]
  binding: binds

## TTTTGGAGATAGGATTCCCGTTCTTTTAGAACCGCATCTTTCACAGGTTCTTTTTTCTTTGTCTCCCTGGGCACGTTCTGATTCAACTGCTGAATCAGCTGCTCAAGTTGGCGAACATTGAGCTGCTCCGCAATCACTTTTTGTACC (double strand) [Cy3 147-bp non-specific (scrambled parS)]
[2]
  Kd: 0.275 µM

## TTTTGGAGATAGGATTCCCGTTCTTTTAGAACCGCATCTTTCACAGGTTCTTTTTTCTTTGTTTCACGTGGAACATTCTGATTCAACTGCTGAATCAGCTGCTCAAGTTGGCGAACATTGAGCTGCTCCGCAATCACTTTTTGTACC (double strand) [Cy3 147-bp parS]
[2]
  Kd: 0.24 µM
